Legend:
[1] = target: T1, human EGFR on cells (human, UniProt P00533); experiment: FACS, FaDu
[2] = target: T1, human EGFR on cells; experiment: FACS, SW620
[3] = target: T1, human EGFR on cells; experiment: FACS, LIM1215
[4] = target: T1, human EGFR on cells; experiment: FACS, HCT-116
[5] = target: T1, human EGFR on cells; experiment: FACS, FaDu; remark: listed apart in the source
[6] = target: EGFR-moIgG2a-Fc (human); experiment: ELISA
[7] = target: EGFR-His (human ECD) (human); experiment: BLI
[8] = target: CD3 on Jurkat (human, UniProt P07766); experiment: FACS, Jurkat
Chain of CD3 on Jurkat (P07766 23-207): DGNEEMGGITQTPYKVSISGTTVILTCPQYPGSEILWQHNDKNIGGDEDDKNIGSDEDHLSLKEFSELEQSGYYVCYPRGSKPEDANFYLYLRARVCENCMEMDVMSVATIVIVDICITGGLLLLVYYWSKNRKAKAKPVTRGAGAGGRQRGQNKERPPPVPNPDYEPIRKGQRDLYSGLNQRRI

B1: eIg YU250-H10xhuU3 EGFR arm (antibody)
chain 1: not shown
chain 2: QSVLTQPPSVSGAPGQRVTISCSGGSSNVGRNGVNWFQHLPEKAPKLLIYYDAFLSSGVSDRFSGSKSGTSASLAIRGLQSDDEADYYCAAWDDSLYSWVFGGGTNLTVLGQPKAAPSVTLFPPSSEELQANKATLVCLISDFYPGAVTVAWKADSSPVKAGVETTTPSKQSNNKYAASSYLSLTPEQWKSHRSYSCQVTHEGSTVEKTVAPTECS
**Q.** How did the EC50 [1] turn out when B1 was run?
**A.** 2.17 nM

**Q.** And the EC50 [2]?
**A.** 0.21 nM

**Q.** What about the EC50 [3] of the same binder?
**A.** 0.85 nM

**Q.** What about the EC50 [4] of the same binder?
**A.** 0.46 nM

B2: eIg MKU011-A7xhuU3 EGFR arm (antibody, V domains shown)
VH: QVQLVQSGGGVVQPGGSLRLSCAASGFTFSSYGMHWVRQAPGKGLEWVAFIRYDGSNKYYADSVKGRFTISRDNSKNTLYLQMNSLRAEDTAVYYCAKDGNSGYDSMDYWGQGTLVTVSS
VL: QPVLTQSPSASGTPGQRVTISCSGVSSNIGRNYVYWYQQFPGTAPKLLIYATHQRPSGVPDRFSGSKSGTSASLAISGLRSEDEANYYCAAWDDGVTGWVFGGGTKLTVLG
**Q.** What does the source list for B2?
**A.** EC50 [5]: 3.28 nM; EC50 [2]: 0.74 nM; EC50 [4]: 4.28 nM

B3: scDb YU250-H10xhuU3 EGFR arm (antibody)
chain 1: QVQLVQSGGGVVQPGGSLRLSCAASGFTFSSYGMHWVRQAPGKGLEWVAFIRYDGSNKYYADSVKGRFTISRDNSKNTLYLQMNSLRAEDTAVYYCAKDGNSGYDSMDYWGQGTLVTVSS
chain 2: QSVLTQPPSVSGAPGQRVTISCSGGSSNVGRNGVNWFQHLPEKAPKLLIYYDAFLSSGVSDRFSGSKSGTSASLAIRGLQSDDEADYYCAAWDDSLYSWVFGGGTNLTVL
**Q.** What does the source list for B3?
**A.** EC50 [1]: 1.68 nM; EC50 [3]: 1.02 nM

B4: Fab-eIg YU250-H10xhuU3 EGFR arm (antibody)
chain 1: QVQLVQSGGGVVQPGGSLRLSCAASGFTFSSYGMHWVRQAPGKGLEWVAFIRYDGSNKYYADSVKGRFTISRDNSKNTLYLQMNSLRAEDTAVYYCAKDGNSGYDSMDYWGQGTLVTVSS
chain 2: QSVLTQPPSVSGAPGQRVTISCSGGSSNVGRNGVNWFQHLPEKAPKLLIYYDAFLSSGVSDRFSGSKSGTSASLAIRGLQSDDEADYYCAAWDDSLYSWVFGGGTNLTVL
**Q.** Which results are given for B4?
**A.** EC50 [1]: 0.76 nM; EC50 [5]: 0.32 nM; EC50 [2]: 0.03 nM; EC50 [4]: 0.13 nM

B5: Fab/scFv-Fc H10x3-43 EGFR arm (antibody)
chain 1: not shown
chain 2: QSVLTQPPSVSGAPGQRVTISCSGGSSNVGRNGVNWFQHLPEKAPKLLIYYDAFLSSGVSDRFSGSKSGTSASLAIRGLQSDDEADYYCAAWDDSLYSWVFGGGTNLTVLGQPKAAPSVTLFPPSSEELQANKATLVCLISDFYPGAVTVAWKADSSPVKAGVETTTPSKQSNNKYAASSYLSLTPEQWKSHRSYSCQVTHEGSTVEKTVAPTECS
**Q.** B5 was tested. Which EC50 [6] did it give?
**A.** 0.3 nM

B6: YU250-H10 Fab-His (antibody)
chain 1: QVQLVQSGGGVVQPGGSLRLSCAASGFTFSSYGMHWVRQAPGKGLEWVAFIRYDGSNKYYADSVKGRFTISRDNSKNTLYLQMNSLRAEDTAVYYCAKDGNSGYDSMDYWGQGTLVTVSS
chain 2: QSVLTQPPSVSGAPGQRVTISCSGGSSNVGRNGVNWFQHLPEKAPKLLIYYDAFLSSGVSDRFSGSKSGTSASLAIRGLQSDDEADYYCAAWDDSLYSWVFGGGTNLTVL
**Q.** B6 was tested. Which Kd [7] did it give?
**A.** 4.17 nM

B7: Db3-43x3-43/FabH10-Fckih EGFR arm (antibody)
chain 1: not shown
chain 2: QSVLTQPPSVSGAPGQRVTISCSGGSSNVGRNGVNWFQHLPEKAPKLLIYYDAFLSSGVSDRFSGSKSGTSASLAIRGLQSDDEADYYCAAWDDSLYSWVFGGGTNLTVLGQPKAAPSVTLFPPSSEELQANKATLVCLISDFYPGAVTVAWKADSSPVKAGVETTTPSKQSNNKYAASSYLSLTPEQWKSHRSYSCQVTHEGSTVEKTVAPTECS
**Q.** How did the EC50 [6] turn out when B7 was run?
**A.** 0.1 nM

B8: eIg 1+1 H10x5D5 EGFR arm (antibody)
chain 1: not shown
chain 2: QSVLTQPPSVSGAPGQRVTISCSGGSSNVGRNGVNWFQHLPEKAPKLLIYYDAFLSSGVSDRFSGSKSGTSASLAIRGLQSDDEADYYCAAWDDSLYSWVFGGGTNLTVLGQPKAAPSVTLFPPSSEELQANKATLVCLISDFYPGAVTVAWKADSSPVKAGVETTTPSKQSNNKYAASSYLSLTPEQWKSHRSYSCQVTHEGSTVEKTVAPTECS
**Q.** With B8 as the binder, how does the EC50 [6] read?
**A.** 1.1 nM

B9: Fab-eIg 2+2 H10x3-43 EGFR arm (antibody)
chain 1: QVQLVQSGGGVVQPGGSLRLSCAASGFTFSSYGMHWVRQAPGKGLEWVAFIRYDGSNKYYADSVKGRFTISRDNSKNTLYLQMNSLRAEDTAVYYCAKDGNSGYDSMDYWGQGTLVTVSS
chain 2: QSVLTQPPSVSGAPGQRVTISCSGGSSNVGRNGVNWFQHLPEKAPKLLIYYDAFLSSGVSDRFSGSKSGTSASLAIRGLQSDDEADYYCAAWDDSLYSWVFGGGTNLTVL
**Q.** B9 was tested. Which EC50 [6] did it give?
**A.** 0.5 nM

B10: Fab-eIg MKU011-A7xhuU3 EGFR arm (antibody, V domains shown)
VH: QVQLVQSGGGVVQPGGSLRLSCAASGFTFSSYGMHWVRQAPGKGLEWVAFIRYDGSNKYYADSVKGRFTISRDNSKNTLYLQMNSLRAEDTAVYYCAKDGNSGYDSMDYWGQGTLVTVSS
VL: QPVLTQSPSASGTPGQRVTISCSGVSSNIGRNYVYWYQQFPGTAPKLLIYATHQRPSGVPDRFSGSKSGTSASLAISGLRSEDEANYYCAAWDDGVTGWVFGGGTKLTVL
**Q.** With B10 as the binder, how does the EC50 [5] read?
**A.** 0.4 nM

**Q.** What about the EC50 [2] of the same binder?
**A.** 0.03 nM

**Q.** And the EC50 [4]?
**A.** 0.16 nM

B11: eIg 1+1 H10x4D5 EGFR arm (antibody)
chain 1: not shown
chain 2: QSVLTQPPSVSGAPGQRVTISCSGGSSNVGRNGVNWFQHLPEKAPKLLIYYDAFLSSGVSDRFSGSKSGTSASLAIRGLQSDDEADYYCAAWDDSLYSWVFGGGTNLTVLGQPKAAPSVTLFPPSSEELQANKATLVCLISDFYPGAVTVAWKADSSPVKAGVETTTPSKQSNNKYAASSYLSLTPEQWKSHRSYSCQVTHEGSTVEKTVAPTECS
**Q.** For B11, which EC50 [6] is on record?
**A.** 6.2 nM

B12: scDb-scFv YU250-H10xhuU3 CD3 arm (antibody, V domains shown)
VH: QVQLVQSGAEVKKPGSSVKVSCKASGGTFSGYTMNWVRQAPGQGLEWMGLINPYKGVSTYNGKFKDRVTITADKSTSTAYMELSSLRSEDTAVYYCARSGYYGDSDWYFDVWGQGTLVTVSS
VL: DIQMTQSPSSLSASVGDRVTITCRASQDIRNYLNWYQQKPGKAPKLLIYYTSRLHSGVPSRFSGSGSGTDFTFTISSLQPEDIATYYCQQGNTLPWTFGQGTKLEIKR
**Q.** With B12 as the binder, how does the EC50 [8] read?
**A.** > 10 nM

B13: Fab-eIg YU250-H10xhuU3 CD3 arm (antibody, V domains shown)
VH: QVQLVQSGAEVKKPGSSVKVSCKASGGTFSGYTMNWVRQAPGQGLEWMGLINPYKGVSTYNGKFKDRVTITADKSTSTAYMELSSLRSEDTAVYYCARSGYYGDSDWYFDVWGQGTLVTVSS
VL: DIQMTQSPSSLSASVGDRVTITCRASQDIRNYLNWYQQKPGKAPKLLIYYTSRLHSGVPSRFSGSGSGTDFTFTISSLQPEDIATYYCQQGNTLPWTFGQGTKLEIKR
**Q.** For B13, which EC50 [8] is on record?
**A.** > 10 nM

B14: Db3-43xH10-Ig EGFR arm (antibody)
chain 1: QVQLVQSGGGVVQPGGSLRLSCAASGFTFSSYGMHWVRQAPGKGLEWVAFIRYDGSNKYYADSVKGRFTISRDNSKNTLYLQMNSLRAEDTAVYYCAKDGNSGYDSMDYWGQGTLVTVSS
chain 2: QSVLTQPPSVSGAPGQRVTISCSGGSSNVGRNGVNWFQHLPEKAPKLLIYYDAFLSSGVSDRFSGSKSGTSASLAIRGLQSDDEADYYCAAWDDSLYSWVFGGGTNLTVL
**Q.** For B14, which EC50 [6] is on record?
**A.** 0.9 nM

B15: scDb-scFv YU250-H10xhuU3 EGFR arm (antibody)
chain 1: QVQLVQSGGGVVQPGGSLRLSCAASGFTFSSYGMHWVRQAPGKGLEWVAFIRYDGSNKYYADSVKGRFTISRDNSKNTLYLQMNSLRAEDTAVYYCAKDGNSGYDSMDYWGQGTLVTVSS
chain 2: QSVLTQPPSVSGAPGQRVTISCSGGSSNVGRNGVNWFQHLPEKAPKLLIYYDAFLSSGVSDRFSGSKSGTSASLAIRGLQSDDEADYYCAAWDDSLYSWVFGGGTNLTVL
**Q.** For B15, which EC50 [1] is on record?
**A.** 0.74 nM

**Q.** And the EC50 [3]?
**A.** 0.31 nM

B16: MKU011-A7 Fab-His (antibody, V domains shown)
VH: QVQLVQSGGGVVQPGGSLRLSCAASGFTFSSYGMHWVRQAPGKGLEWVAFIRYDGSNKYYADSVKGRFTISRDNSKNTLYLQMNSLRAEDTAVYYCAKDGNSGYDSMDYWGQGTLVTVSS
VL: QPVLTQSPSASGTPGQRVTISCSGVSSNIGRNYVYWYQQFPGTAPKLLIYATHQRPSGVPDRFSGSKSGTSASLAISGLRSEDEANYYCAAWDDGVTGWVFGGGTKLTVL
**Q.** With B16 as the binder, how does the Kd [7] read?
**A.** 55.8 nM

B17: YU250-A02 Fab-His (antibody, V domains shown)
VH: QVQLQESGGGVVQPGGSLRLSCAASGFTFSSYGMHWVRQAPGKGLEWVAFIRYDGSNKYYADSVKGRFTISRDNSKNTLYLQMNSLRAEDTAVYYCAKDGNSGYDSMDYWGQGTLVTVSS
VL: QSVLTQPPSVSGAPGQRVTISCSGGSSNVGRNGVNWFQHLPEKAPKLLIYYDAFLSSGVSDRFSGSKSGTSASLAIRGLQSEDEADYYCASWDDSLTGWVFGGGTKLTVL
**Q.** For B17, which Kd [7] is on record?
**A.** 12.9 nM

B18: scDb YU250-H10xhuU3 CD3 arm (antibody, V domains shown)
VH: QVQLVQSGAEVKKPGSSVKVSCKASGGTFSGYTMNWVRQAPGQGLEWMGLINPYKGVSTYNGKFKDRVTITADKSTSTAYMELSSLRSEDTAVYYCARSGYYGDSDWYFDVWGQGTLVTVSS
VL: DIQMTQSPSSLSASVGDRVTITCRASQDIRNYLNWYQQKPGKAPKLLIYYTSRLHSGVPSRFSGSGSGTDFTFTISSLQPEDIATYYCQQGNTLPWTFGQGTKLEIKR
**Q.** Which EC50 [8] does the source give for B18 here?
**A.** 7.56 nM

B19: eIg 1+1 H10x3-43 EGFR arm (antibody)
chain 1: not shown
chain 2: QSVLTQPPSVSGAPGQRVTISCSGGSSNVGRNGVNWFQHLPEKAPKLLIYYDAFLSSGVSDRFSGSKSGTSASLAIRGLQSDDEADYYCAAWDDSLYSWVFGGGTNLTVLGQPKAAPSVTLFPPSSEELQANKATLVCLISDFYPGAVTVAWKADSSPVKAGVETTTPSKQSNNKYAASSYLSLTPEQWKSHRSYSCQVTHEGSTVEKTVAPTECS
**Q.** B19 was tested. Which EC50 [6] did it give?
**A.** 0.5 nM

B20: eIg YU250-H10xhuU3 CD3 arm (antibody, V domains shown)
VH: QVQLVQSGAEVKKPGSSVKVSCKASGGTFSGYTMNWVRQAPGQGLEWMGLINPYKGVSTYNGKFKDRVTITADKSTSTAYMELSSLRSEDTAVYYCARSGYYGDSDWYFDVWGQGTLVTVSS
VL: DIQMTQSPSSLSASVGDRVTITCRASQDIRNYLNWYQQKPGKAPKLLIYYTSRLHSGVPSRFSGSGSGTDFTFTISSLQPEDIATYYCQQGNTLPWTFGQGTKLEIKR
**Q.** For B20, which EC50 [8] is on record?
**A.** > 10 nM

— patent US20260297200 (published 2026)
